Laboratory results taken from article PMC11327109, “Unwinding of a eukaryotic origin of replication visualized by cryo-EM” (Nature Structural & Molecular Biology, 2024).
Numbering of substitutions follows the chain as printed.

T1: Mcm10 3A (OB-fold mutant) (Saccharomyces cerevisiae, UniProt P32354 1-571, F230A;Y245A;F247A)
T1 sequence: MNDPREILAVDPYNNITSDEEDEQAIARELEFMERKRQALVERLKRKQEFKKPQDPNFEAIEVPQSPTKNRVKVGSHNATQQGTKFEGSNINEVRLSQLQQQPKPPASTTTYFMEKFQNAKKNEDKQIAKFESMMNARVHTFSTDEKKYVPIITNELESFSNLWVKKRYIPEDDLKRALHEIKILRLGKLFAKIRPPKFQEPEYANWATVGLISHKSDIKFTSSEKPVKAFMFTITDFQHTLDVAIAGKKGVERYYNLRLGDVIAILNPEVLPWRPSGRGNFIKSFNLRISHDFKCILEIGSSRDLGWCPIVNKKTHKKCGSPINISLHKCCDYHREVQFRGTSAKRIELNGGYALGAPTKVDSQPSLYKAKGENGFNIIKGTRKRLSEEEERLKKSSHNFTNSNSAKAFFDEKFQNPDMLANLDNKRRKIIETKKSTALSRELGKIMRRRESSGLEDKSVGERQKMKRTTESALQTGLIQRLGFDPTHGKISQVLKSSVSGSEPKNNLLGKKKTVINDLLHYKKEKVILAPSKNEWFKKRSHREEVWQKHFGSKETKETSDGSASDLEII

T2: Mcm10 deltaCTD (Saccharomyces cerevisiae, UniProt P32354 1-357, del358-571)
T2 sequence: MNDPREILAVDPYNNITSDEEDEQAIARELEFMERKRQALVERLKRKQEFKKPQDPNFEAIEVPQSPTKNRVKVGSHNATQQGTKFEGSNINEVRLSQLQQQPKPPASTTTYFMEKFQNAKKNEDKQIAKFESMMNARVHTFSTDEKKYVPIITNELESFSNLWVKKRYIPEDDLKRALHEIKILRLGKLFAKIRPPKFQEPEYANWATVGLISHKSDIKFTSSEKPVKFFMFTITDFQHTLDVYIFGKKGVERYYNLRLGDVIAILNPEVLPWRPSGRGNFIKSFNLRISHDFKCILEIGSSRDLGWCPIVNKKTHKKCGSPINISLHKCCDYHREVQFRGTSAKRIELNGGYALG

T3: Mcm10 wild-type (Saccharomyces cerevisiae, UniProt P32354 1-571)
T3 sequence: T1 sequence with A230F, A245Y, A247F


Key:
[1] = test system: T4, sCMGE10 (single Cdc45-MCM-GINS-Polε with Mcm10); test: cryo-EM structure of complex ([…]-3.[…] Å); format: binding, Saccharomyces cerevisiae; details: assembled with 5 mM ATP, magnesium acetate, pH 7.6, bound to origin DNA; MCM ATPase sites
T4 construct: gene MCM2; His- or TwinStrepII-tagged GINS; MCM loaded as Mcm2-7/Cdt1; wild type; ATP/ADP in MCM ATPase tier; with Cell division control protein 45; DNA replication complex GINS protein PSF1; DNA replication complex GINS protein PSF2; DNA replication complex GINS protein PSF3; DNA replication complex GINS protein SLD5; DNA polymerase epsilon catalytic subunit A; DNA polymerase epsilon subunit B; DNA polymerase epsilon subunit C; DNA polymerase epsilon subunit D; Minichromosome maintenance protein 10

[2] = target: T1, Mcm10 3A (OB-fold mutant); test: MST; 10 mM Mg acetate; MST: 25 mM HEPES-KOH pH 7.6, 100 mM K-glutamate, 10 mM Mg acetate, 0.02% NP-40, 0.5 mM TCEP, 5 nM ssDNA, room temperature, 30 min; CMG assembly/EM: same buffer; details: protein: recombinant; label: FAM (after the 3' end)
Mcm10 deltaCTD = target: T2, Mcm10 deltaCTD; test: as above; details: protein: recombinant; tags: N-terminal 6xHis, C-terminal 3xFlag; label: FAM (after the 3' end)
Mcm10 wild-type = target: T3, Mcm10 wild-type; test: as above; details: protein: recombinant; tags: N-terminal His, C-terminal Flag (pHis-Mcm10-Flag); label: FAM (after the 3' end)

Molecule | cryo-EM structure of complex (3.7-3.9 Å) [1] | binding result [2] | binding result (Mcm10 deltaCTD) | binding result (Mcm10 wild-type)
Nc1ncnc2c1ncn2[C@@H]1O[C@H](COP(=O)(O)OP(=O)(O)O)[C@@H](O)[C@H]1O [ADP] | Cryo-EM density for nucleotide ATP and ADP for consensus, ssDNA and nexus map | – | – | –
Nc1ncnc2c1ncn2[C@@H]1O[C@H](COP(=O)(O)OP(=O)(O)OP(=O)(O)O)[C@@H](O)[C@H]1O [ATP] | Cryo-EM density for nucleotide ATP and ADP for consensus, ssDNA and nexus map | – | – | –
CCCCCCCCCCCC (ssDNA) [FAM-labelled dC12 ssDNA] | – | no binding | binds | binds
